Assay [1] has as its target Bunyamwera virus Gc glycoprotein (Bunyamwera virus) (UniProt P04505). Briefly: cryo-EM structure; electron cryo-tomography and sub-tomogram averaging of about 2,000 spikes on purified BUNV virions vitrified at pH 7.4; 3.0 nm resolution; three-fold symmetry seen without imposing it; validated by single particle averaging of spike side views.
The target of assay [2] is Bunyamwera virus Gn–Gc glycoprotein heterodimer (protomer of the membrane-bound glycoprotein spike) (Bunyamwera virus). Described as above.

The term stoichiometry N denotes the number of molecules, sites or subunits per partner or assembly.

Take “Bunyamwera virus Gc glycoprotein (from UniProt P04505 478-1433) (natural protein)”: the stoichiometry N in assay [1] was 3. For “Bunyamwera virus Gn–Gc glycoprotein heterodimer (protomer of the membrane-bound glycoprotein spike) (complex)”, the stoichiometry N in assay [2] turned out to be 3.

The record behind these values is article PMC3656102.
